Data taken from the supplement of paper PMC11246515.
± gives the standard deviation of the averaged measurements.

Assay: total protein half-life in vivo (active degradation + dilution); higher = more stable protein
[1] = E. coli NCM3722 delta-clpP delta-lon delta-hslV, growth: N-lim chemostat, doubling time 6 h
[2] = E. coli NCM3722 delta-clpP, growth: N-lim chemostat, doubling time 6 h
[3] = E. coli NCM3722 delta-hslV, growth: N-lim chemostat, doubling time 6 h
[4] = E. coli NCM3722 delta-lon, growth: N-lim chemostat, doubling time 6 h
[5] = wild type E. coli NCM3722, growth: C-lim chemostat, doubling time 3 h
[6] = wild type E. coli NCM3722, growth: C-lim chemostat, doubling time 6 h
[7] = wild type E. coli NCM3722, growth: C-lim chemostat, doubling time 12 h
[8] = wild type E. coli NCM3722, growth: N-lim chemostat, doubling time 12 h
[9] = wild type E. coli NCM3722, growth: P-lim chemostat, doubling time 6 h
[10] = wild type E. coli NCM3722, growth: P-lim chemostat, doubling time 12 h
[11] = E. coli NCM3722 delta-smpB, growth: N-lim chemostat, doubling time 6 h
[12] = wild type E. coli NCM3722, growth: N-lim chemostat, doubling time 6 h

| Sequence | total protein half-life in vivo [1] [h] | total protein half-life in vivo [2] [h] | total protein half-life in vivo [3] [h] | total protein half-life in vivo [4] [h] | total protein half-life in vivo [5] [h] | total protein half-life in vivo [6] [h] | total protein half-life in vivo [7] [h] | total protein half-life in vivo [8] [h] | total protein half-life in vivo [9] [h] | total protein half-life in vivo [10] [h] | total protein half-life in vivo [11] [h] | total protein half-life in vivo [12] [h] |
| --- | --- | --- | --- | --- | --- | --- | --- | --- | --- | --- | --- | --- |
| MNEFFPLASAAGMTVGLAVCALIVGLALAMFFAVWESAKWRPVAWAGSALVTILRGLPEILVVLFIYFGSSQLLLTLSDGFTINLGFVQIPVQMDIENFDVSPFLCGVIALSLLYAAYASQTLRGALKAVPVGQWESGQALGLSKSAIFFRLVMPQMWRHALPGLGNQWLVLLKDTALVSLISVNDLMLQTKSIATRTQEPFTWYIVAAAIYLVITLLSQYILKRIDLRATRFERRPS [P0AE34] | 7.86 | 6.25 | 6.66 ± 0.82 | 6.45 | 2.92 ± 0.51 | 6.02 ± 0.79 | 11.9 ± 0.15 | 11.5 ± 2.6 | 6.78 | 12.3 ± 0.57 |  |  |
| MNKNMAGILSAAAVLTMLAGCTAYDRTKDQFVQPVVKDVKKGMSRAQVAQIAGKPSSEVSMIHARGTCQTYILGQRDGKAETYFVALDDTGHVINSGYQTCAEYDTDPQAAK [P0ADB1] | 5.54 ± 0.094 | 5.7 ± 0.36 |  |  | 3.03 ± 0.22 | 6.14 ± 0.68 | 10.4 ± 1.6 | 12.3 ± 2.4 | 5.73 ± 0.26 | 12.6 ± 0.59 | 5.74 ± 0.22 |  |
| MRLTTKFSAFVTLLTGLTIFVTLLGCSLSFYNAIQYKFSHRVQAVATAIDTHLVSNDFSVLRPQITELMMSADIVRVDLLHGDKQVYTLARNGSYRPVGSSDLFRELSVPLIKHPGMSLRLVYQDPMGNYFHSLMTTAPLTGAIGFIIVMLFLAVRWLQRQLAGQELLETRATRILNGERGSNVLGTIYEWPPRTSSALDTLLREIQNAREQHSRLDTLIRSYAAQDVKTGLNNRLFFDNQLATLLEDQEKVGTHGIVMMIRLPDFNMLSDTWGHSQVEEQFFTLTNLLSTFMMRYPGALLARYHRSDFAALLPHRTLKEAESIAGQLIKAVDTLPNNKMLDRDDMIHIGICAWRSGQDTEQVMEHAESATRNAGLQGGNSWAIYDDSLPEKGRGNVRWRTLIEQMLSRGGPRLYQKPAVTREGQVHHRELMCRIFDGNEEVSSAEYMPMVLQFGLSEEYDRLQISRLIPLLRYWPEENLAIQVTVESLIRPRFQRWLRDTLMQCEKSQRKRIIIELAEADVGQHISRLQPVIRLVNALGVRVAVNQAGLTLVSTSWIKELNVELLKLHPGLVRNIEKRTENQLLVQSLVEACSGTSTQVYATGVRSRSEWQTLIQRGVTGGQGDFFASSQPLDTNVKKYSQRYSV | 6 ± 1.2 | 6.52 ± 0.62 | 6.35 ± 0.42 | 5.67 ± 0.62 | 3.44 ± 0.17 | 6.042 ± 0.0062 |  | 11.59 ± 0.06 | 5.52 ± 0.13 | 13 ± 0.43 | 5.945 ± 0.0086 | 6.45 ± 0.23 |
| MSKIFEDNSLTIGHTPLVRLNRIGNGRILAKVESRNPSFSVKCRIGANMIWDAEKRGVLKPGVELVEPTSGNTGIALAYVAAARGYKLTLTMPETMSIERRKLLKALGANLVLTEGAKGMKGAIQKAEEIVASNPEKYLLLQQFSNPANPEIHEKTTGPEIWEDTDGQVDVFIAGVGTGGTLTGVSRYIKGTKGKTDLISVAVEPTDSPVIAQALAGEEIKPGPHKIQGIGAGFIPANLDLKLVDKVIGITNEEAISTARRLMEEEGILAGISSGAAVAAALKLQEDESFTNKNIVVILPSSGERYLSTALFADLFTEKELQQ [P0ABK5] | 5.312 ± 0.029 | 5.14 ± 0.39 | 4.87 ± 0.096 | 5.03 ± 0.31 | 3.45 ± 0.18 | 6.1 ± 0.7 | 11.8 ± 2.1 | 8.22 ± 0.3 | 5.72 ± 0.34 | 13.1 ± 1.2 | 4.53 ± 0.22 | 4.68 ± 0.36 |
| MHVTAKPSSFQCNLKCDYCFYLEKESQFTHEKWMDDSTLKEFIKQYIAASGNQVYFTWQGGEPTLAGLDFFRKVIHYQQRYAGQKRIFNALQTNGILLNNEWCAFLKEHEFLVGISIDGPQELHDRYRRSNSGNGTFAKVIAAIERLKSYQVEFNTLTVINNVNVHYPLEVYHFLKSIGSKHMQFIELLETGTPNIDFSGHSENTFRIIDFSVPPTAYGKFMSTIFMQWVKNDVGEIFIRQFESFVSRFLGNGHTSCIFQESCKDNLVVESNGDIYECDHFVYPQYKIGNINKSELKTMNSVQLTAQKKRIPAKCQQCAYKPICNGGCPKHRITKVNNETVSYFCEGYKILFSTMVPYMNAMVELAKNRVPLYHIMDVAKQMENN |  |  |  |  | 1.12 ± 0.083 | 1.77 ± 0.19 | 2.03 |  |  |  |  |  |
| MITRDFLMNADCKTAFGAIEESLLWSAEQRAASLAATLACRPDEGPVWIFGYGSLMWNPALEFTESCTGTLVGWHRAFCLRLTAGRGTAHQPGRMLALKEGGRTTGVAYRLPEETLEQELTLLWKREMITGCYLPTWCQLDLDDGRTVNAIVFIMDPRHPEYESDTRAQVIAPLIAAASGPLGTNAQYLFSLEQELIKLGMQDDGLNDLLVSVKKLLAENFPDGVLRPGFA | 5.67 ± 0.14 |  |  |  |  |  |  |  |  |  |  |  |
| MLPSISINNTSAAYPESINENNNDEVNGLVQEFKNLFNGKEGISTCIKHLLELIKNAIRVNDDPYRFNINNSSVTYIDIDSNDTDHITIGIDNQEPIELPANYKDKELVRTIINDNIVEKTHDINNKEMIFSALKEIYDGDPGFIFDKISHKLRHTVTEFDESGKSEPTDLFTWYGKDKKGDSLAIVIKNKNGNDYLSLGYYDQDDYHIQRGIRINGDSLTQYCSENARSASAWFESSKAIMAESFATGSDHQVVNELNGERLREPNDVFKRYGRAIRYDFQVDDAKYKCDHLKEIVSTLVGNKINVGHSQKIYKHFKDLEGKIEERLQNRQAEYQNEINQPSAPGVNFDDI |  |  |  |  |  |  |  |  |  |  |  | 5.3 |
